Laboratory results: PMC12955825 (Med (New York, N.Y.), 2025)
Bridge positions count the residues as written; N and C are the ends. Ends that are not written are not given here.

Columns and labels:
[1] = molecular target: T1, histidine-rich glycoprotein (human, UniProt P04196 19-525); assay: phage-binding assay
T1 sequence (looked up): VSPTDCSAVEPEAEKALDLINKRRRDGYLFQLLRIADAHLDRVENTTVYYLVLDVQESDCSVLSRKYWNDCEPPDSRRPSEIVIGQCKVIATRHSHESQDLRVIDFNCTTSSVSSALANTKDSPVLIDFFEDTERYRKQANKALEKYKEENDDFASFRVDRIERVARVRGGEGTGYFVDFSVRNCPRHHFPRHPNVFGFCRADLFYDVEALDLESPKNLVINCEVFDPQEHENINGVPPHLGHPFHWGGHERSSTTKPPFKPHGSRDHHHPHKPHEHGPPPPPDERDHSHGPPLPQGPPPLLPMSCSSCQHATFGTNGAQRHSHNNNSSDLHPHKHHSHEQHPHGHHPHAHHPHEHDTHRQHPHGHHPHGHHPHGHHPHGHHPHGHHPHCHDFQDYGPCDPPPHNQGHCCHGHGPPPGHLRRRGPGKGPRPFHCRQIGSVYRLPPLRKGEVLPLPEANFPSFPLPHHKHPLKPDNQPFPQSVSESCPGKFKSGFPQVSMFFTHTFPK

[2] = molecular target: T2, cystatin-A (human, UniProt P01040 1-98); assay: phage-binding assay
T2 sequence (looked up): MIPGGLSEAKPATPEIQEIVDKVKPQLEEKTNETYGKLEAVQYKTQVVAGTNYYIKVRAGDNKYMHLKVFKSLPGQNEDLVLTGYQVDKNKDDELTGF

[3] = molecular target: T3, CASQ1, human recombinant protein (human, UniProt P31415 35-396); assay: phage-binding assay
T3 sequence (looked up): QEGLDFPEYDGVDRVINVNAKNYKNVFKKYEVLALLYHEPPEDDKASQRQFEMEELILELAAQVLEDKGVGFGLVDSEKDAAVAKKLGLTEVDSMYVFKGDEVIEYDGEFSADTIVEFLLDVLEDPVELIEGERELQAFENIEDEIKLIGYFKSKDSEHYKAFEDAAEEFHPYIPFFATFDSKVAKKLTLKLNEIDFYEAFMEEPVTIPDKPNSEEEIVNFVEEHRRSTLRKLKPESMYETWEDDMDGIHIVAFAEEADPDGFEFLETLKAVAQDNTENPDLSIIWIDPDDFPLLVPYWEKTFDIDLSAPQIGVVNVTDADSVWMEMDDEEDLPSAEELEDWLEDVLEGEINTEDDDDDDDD

[4] = molecular target: HSP27, human recombinant protein (human, UniProt P04792 1-205); assay: phage-binding assay
[5] = molecular target: T4, CALR, human recombinant protein (human, UniProt P27797 18-417); assay: circular dichroism
T4 sequence (looked up): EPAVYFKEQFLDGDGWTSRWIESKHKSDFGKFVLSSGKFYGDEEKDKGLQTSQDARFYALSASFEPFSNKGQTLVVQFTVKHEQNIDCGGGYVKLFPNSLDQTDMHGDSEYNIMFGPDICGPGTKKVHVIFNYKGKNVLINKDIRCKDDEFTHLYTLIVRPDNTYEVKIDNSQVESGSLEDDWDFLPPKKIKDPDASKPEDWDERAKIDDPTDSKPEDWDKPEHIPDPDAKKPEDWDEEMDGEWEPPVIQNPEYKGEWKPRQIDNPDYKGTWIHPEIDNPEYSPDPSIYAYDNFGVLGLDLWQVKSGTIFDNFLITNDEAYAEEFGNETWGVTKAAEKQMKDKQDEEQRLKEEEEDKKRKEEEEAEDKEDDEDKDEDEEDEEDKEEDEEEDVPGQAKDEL

Sequence of HSP27, human recombinant protein (P04792 whole entry): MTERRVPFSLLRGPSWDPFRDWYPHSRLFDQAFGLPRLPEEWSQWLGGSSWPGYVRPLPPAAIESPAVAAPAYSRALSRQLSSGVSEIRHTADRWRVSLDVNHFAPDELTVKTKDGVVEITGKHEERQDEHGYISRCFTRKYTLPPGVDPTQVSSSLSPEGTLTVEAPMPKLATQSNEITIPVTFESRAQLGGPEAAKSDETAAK

CVGQVGGRRC (disulfide 1-10) [CVGQVGGRRC-displaying phage]: binds [1].

CEARASGSRC (disulfide 1-10) [CEARASGSRC-displaying phage]: binds [2].

CLRGFPALVC (disulfide 1-10) [CLRGFPALVC peptide (C1-C10 disulfide bridge)]: binds [3].

CSEIGVRAC (disulfide 1-9) [CSEIGVRAC peptide (C1-C9 disulfide bridge)]: binds [4].

CRQRPASGC (disulfide 1-9) [CRQRPASGC peptide (C1-C9 disulfide bridge)]: binds [5].
